Experimental data published in publication PMC7351741, “Structural basis of seamless excision and specific targeting by piggyBac transposase”.

Experiments:
[1] = biological target: piggyBac transposase (PB), full-length, Trichoplusia ni (Trichoplusia ni); assay: SEC-MALS; purified PB at 4 and 2 mg/ml, Superdex 200 Increase 10/300, 20 mM HEPES pH 7.5, 100 mM NaCl, 1 mM TCEP; no DNA
[2] = biological target: T1, piggyBac transposase (PB) (Trichoplusia ni, UniProt Q283G1 1-594); assay: cryo-EM; 10 mM Ca2+; Zn2+ in CRD; SNHP: 50 mM Tris-Cl pH 8.0, 100 mM NaCl, 5 mM CaCl2, 1 mM TCEP, mixed 1 h at 25 C; STC: 50 mM Tris-Cl pH 8.0, 500 mM NaCl dialyzed to 200 mM NaCl, 10 mM CaCl2; details: protein: recombinant; tags: N-terminal MBP tag removed by TEV; chain copies: 2; four annealed oligos, 2 copies of each; S4 pairs with S5+S6 (break between S5 and S6), 5' CCGG flap on S4; S7 pairs with 3' 11 nt of S6; central target TTAA unpaired in the complex
[3] = biological target: T1, piggyBac transposase (PB); assay: cryo-EM; 5 mM Ca2+; Zn2+ in CRD; SNHP: 50 mM Tris-Cl pH 8.0, 100 mM NaCl, 5 mM CaCl2, 1 mM TCEP, mixed 1 h at 25 C; STC: 50 mM Tris-Cl pH 8.0, 500 mM NaCl dialyzed to 200 mM NaCl, 10 mM CaCl2; details: protein: recombinant; tags: N-terminal MBP tag removed by TEV; chain copies: 2; hairpin, 35 bp stem, TTAA loop; 2 copies per PB dimer

T1 sequence (Q283G1 entry or part of it): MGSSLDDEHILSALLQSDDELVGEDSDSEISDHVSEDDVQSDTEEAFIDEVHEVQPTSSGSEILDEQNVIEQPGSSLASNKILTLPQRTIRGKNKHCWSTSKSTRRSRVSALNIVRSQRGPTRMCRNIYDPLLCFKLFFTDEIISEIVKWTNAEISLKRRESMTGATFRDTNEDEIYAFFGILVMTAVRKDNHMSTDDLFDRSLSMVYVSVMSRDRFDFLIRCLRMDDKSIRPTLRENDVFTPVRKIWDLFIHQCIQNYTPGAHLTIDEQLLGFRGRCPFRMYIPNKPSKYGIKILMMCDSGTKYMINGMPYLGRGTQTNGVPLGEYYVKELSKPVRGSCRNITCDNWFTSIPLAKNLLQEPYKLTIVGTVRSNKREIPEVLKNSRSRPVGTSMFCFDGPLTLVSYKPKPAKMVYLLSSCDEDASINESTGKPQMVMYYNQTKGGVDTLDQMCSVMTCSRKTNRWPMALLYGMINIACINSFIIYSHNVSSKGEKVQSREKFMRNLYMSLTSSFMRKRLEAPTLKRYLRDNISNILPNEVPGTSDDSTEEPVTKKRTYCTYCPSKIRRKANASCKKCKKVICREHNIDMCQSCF

Molecule: piggyBac transposase (PB), full-length, Trichoplusia ni (enzyme)
- stoichiometry N [1]: 2

B1: LE STC DNA (mixed)
DNA 1: CCGGCCCTAGAAAGATAGTCTGCGTAAAATTGACGCATGCA
DNA 2: TGCATGCGTCAATTTTACGC
DNA 3: AGACTATCTTTCTAGGGTTAAGACTGTGCCGC
DNA 4: GCGGCACAGTC
- binding result [2]: binds

B2: LE35hrpn (SNHP LE hairpin DNA) (structured_DNA)
DNA: CATGCGTCAATTTTACGCAGACTATCTTTCTAGGGTTAACCCTAGAAAGATAGTCTGCGTAAAATTGACGCATG
- binding result [3]: binds
